# Data reported in article PMC6972931, “YqfB protein from Escherichia coli: an atypical amidohydrolase active towards N^4-acylcytosine derivatives” (Scientific Reports, 2020).
# B1: YqfB with a C-terminal His6 tag (Escherichia coli K-12) (protein)
# chain: MQPNDITFFQRFQDDILAGRKTITIRDESESHFKTGDVLRVGRFEDDGYFCTIEVTATSTVTLDTLTEKHAEQENMTLTELKKVIADIYPGQTQFYVIEFKCL
# notes: full length (103 residues), C-terminal His6 kept, pET21b, expressed in E. coli BL21(DE3) yqfB::Km, monomer
# B2: recombinant YqfB with an N-terminal His6 tag (Escherichia coli K-12) (protein)
# chain: B1 chain
# notes: full length (103 residues), N-terminal His6 kept, pETDuet-1, expressed in E. coli BL21(DE3) yqfB::Km
# B3: recombinant wild-type YqfB (tag-free) (Escherichia coli K-12) (protein)
# chain: B1 chain
# notes: full length (103 residues), no tag, pET21b-yqfB
# Assays:
# Experiment in all cases: spectrophotometric hydrolysis assay, fit with product inhibition
# Format in all cases: biochemical, Escherichia coli
# Details in all cases: 50 mM potassium phosphate, pH 8.0, 22 °C
# [1] = system: T1, CC(=O)Nc1ccn([C@@H]2O[C@H](CO)[C@@H](O)[C@H]2O)c(=O)n1
# T1 construct: full length (103 residues), C-terminal His6 kept, pET21b, expressed in E. coli BL21(DE3) yqfB::Km, monomer
# Source text: (§1) spectrophotometric hydrolysis assay, fit with product inhibition on YqfB with a C-terminal His6 tag
# CC(=O)Nc1cc[nH]c(=O)n1 = system: T2, CC(=O)Nc1cc[nH]c(=O)n1
# T2 construct: full length (103 residues), C-terminal His6 kept, pET21b, expressed in E. coli BL21(DE3) yqfB::Km, monomer
# Source text: as §1
# [2] = substrate: CC(=O)Nc1nc(O)ncc1F
# Source text: as §1
# [3] = substrate: O=C(Nc1ccn([C@H]2C[C@H](O)[C@@H](CO)O2)c(=O)n1)c1ccccc1
# Source text: as §1
# [4] = substrate: O=C(Nc1ccn([C@@H]2O[C@H](CO)[C@@H](O)[C@H]2O)c(=O)n1)c1ccccc1
# Source text: as §1
# [5] = substrate: CCCCCC(=O)Nc1ccn([C@H]2C[C@H](O)[C@@H](CO)O2)c(=O)n1
# Source text: as §1
# [6] = substrate: CC(C)C(=O)Nc1ccn([C@H]2C[C@H](O)[C@@H](CO)O2)c(=O)n1
# Source text: as §1
# [7] = substrate: CCCCCOC(=O)Nc1nc(=O)n([C@@H]2O[C@H](C)[C@@H](O)[C@H]2O)cc1F
# Source text: as §1
# [8] = substrate: CC(=O)Nc1ccn([C@@H]2O[C@H](CO)[C@@H](O)[C@H]2O)c(=O)n1
# Source text: as §1
# [9] = substrate: CC(=O)Nc1ccn([C@H]2C[C@H](O)[C@@H](CO)O2)c(=O)n1
# Source text: as §1
# [10] = substrate: CC(=O)Nc1cc[nH]c(=O)n1
# Source text: as §1
# [11] = substrate: CC(=O)Nc1ccn([C@@H]2O[C@H](CO)[C@@H](O)[C@H]2O)c(=O)n1; remark: listed apart in the source
# Source text: spectrophotometric hydrolysis assay, fit with product inhibition on recombinant YqfB with an N-terminal His6 tag
# [12] = substrate: CC(=O)Nc1ccn([C@@H]2O[C@H](CO)[C@@H](O)[C@H]2O)c(=O)n1; remark: listed apart in the source
# Source text: spectrophotometric hydrolysis assay, fit with product inhibition on recombinant wild-type YqfB (tag-free)
molecule,measurement,setting,value
YqfB with a C-terminal His6 tag (Escherichia coli K-12; Y89A),Km,[1],(2.2 ± 0.06) × 10^−3 M
same,kcat,[1],40 ± 1.3 s⁻¹
same,kcat/Km,[1],19000 ± 900 M⁻¹ s⁻¹
YqfB with a C-terminal His6 tag (Escherichia coli K-12; H70A),Km,[1],(5.0 ± 0.02) × 10^−5 M
same,kcat,[1],23 ± 0.029 s⁻¹
same,kcat/Km,[1],400000 ± 2000 M⁻¹ s⁻¹
YqfB with a C-terminal His6 tag (Escherichia coli K-12; E74A),Km,CC(=O)Nc1cc[nH]c(=O)n1,(3.0 ± 0.02) × 10^−4 M
same,kcat,CC(=O)Nc1cc[nH]c(=O)n1,0.22 ± 0.001 s⁻¹
same,kcat/Km,CC(=O)Nc1cc[nH]c(=O)n1,700 ± 4 M⁻¹ s⁻¹
same,Km,[1],(2.0 ± 0.03) × 10^−6 M
same,kcat,[1],0.07 ± 0.0006 s⁻¹
same,kcat/Km,[1],30000 ± 500 M⁻¹ s⁻¹
YqfB with a C-terminal His6 tag (Escherichia coli K-12; D27A),Km,[1],(2.9 ± 0.11) × 10^−4 M
same,kcat,[1],300 ± 16 s⁻¹
same,kcat/Km,[1],1.2e+06 ± 10000 M⁻¹ s⁻¹
B1,Km,[2],(2.1 ± 0.2) × 10^−3 M
same,kcat,[2],90 ± 7 s⁻¹
same,kcat/Km,[2],40000 ± 3000 M⁻¹ s⁻¹
same,Km,[3],(3.00 ± 0.01) × 10^−4 M
same,kcat,[3],0.07 ± 0.01 s⁻¹
same,kcat/Km,[3],230 ± 10 M⁻¹ s⁻¹
same,Km,[4],(5.1 ± 0.03) × 10^−3 M
same,Km,[5],(1.4 ± 0.1) × 10^−4 M
same,Km,[6],(1.9 ± 0.08) × 10^−3 M
same,kcat,[6],75 ± 3 s⁻¹
same,kcat/Km,[6],37500 ± 600 M⁻¹ s⁻¹
same,Km,[7],(7.0 ± 0.2) × 10^−4 M
same,kcat,[7],0.016 ± 0.003 s⁻¹
same,kcat/Km,[7],22 ± 0.1 M⁻¹ s⁻¹
same,Km,[8],(6.2 ± 0.1) × 10^−5 M
same,kcat,[8],157 ± 1 s⁻¹
same,kcat/Km,[8],2.2e+06 ± 100000 M⁻¹ s⁻¹
same,Km,[9],(4.00 ± 0.04) × 10^−4 M
same,kcat,[9],101 ± 1 s⁻¹
same,kcat/Km,[9],230000 ± 2000 M⁻¹ s⁻¹
same,Km,[10],(7.0 ± 0.2) × 10^−5 M
B2,Km,[11],(7.0 ± 0.1) × 10^−5 M
same,kcat,[11],154 ± 3 s⁻¹
same,kcat/Km,[11],2.5e+06 ± 200000 M⁻¹ s⁻¹
B3,Km,[12],(7.0 ± 0.1) × 10^−5 M
same,kcat,[12],196 ± 1 s⁻¹
same,kcat/Km,[12],2.8e+06 ± 300000 M⁻¹ s⁻¹
